# Reference: publication PMC9618136 (2022)
# B1: OsExo70F2, N-terminally truncated, purified (domain or fragment)
# chain: ISAAAFDAAEQLIQVWDGTPEALVFEATEDEVAEYLSAVDVAIEHLARGSGGGAGGAGSSSSSTAGRAGVAVQLAMARLEEELRHLMVRHAVPLDPTGLFFSLRRLSLGSMDDLDTSSEFDAATPHSIDVAPETARGGPLVNPFEDQVFDPVRPEAVDDLRAIADRMARAGYSRELADAYCGIRRDLLDEYLSALGVERLSIDEVQRIEWKHLNDKMKKWVQAVKTVVRVLLAGERRLCDQVLSVSDELREECFIESTKGCIMQILSFGDAVAVCPRSPEKLSRILDMYEALAEVIPEMKDLCLGSSGDGVISDVQANLDRLGDAIRGTLFEFGKVLQLESSRRAMTAGEIHPMTRYVMNYLRLLVVYSDTLDALLDDNADDQIDLARAEDQDQEHLESMTPLGKRLLKLISYLEANLEEKSKLYEDSALECIFSMNNLLYIVQKVRDSELGKILGDHWVKRRNGKIRQYSKSYLRISWMKVLSFLKDDGHGSGSGSSSGSGSGHSSSRMSIKEKFKNFNLAFEEIYRNQTTWKVPDPQLREELKISISENVIPAYRAFLGRYGSQVDGGRNSGKYIKYTPEDLESQLSDLFEGAPGPANHSRRRT
# Target: AVR-Pii effector domain (residues 20 to 70), purified (Magnaporthe oryzae)
# Assay: ITC
binder,measurement,value
B1,Kd,< 1 nM
